For this assay, the target named is T1, Escherichia coli RelE toxin, fluorescently labeled (RED-NHS) (Escherichia coli, UniProt P0C077).
T1 sequence: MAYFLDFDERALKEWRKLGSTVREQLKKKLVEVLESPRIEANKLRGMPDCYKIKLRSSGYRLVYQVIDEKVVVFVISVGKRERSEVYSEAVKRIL
As to the kind of experiment: other fluorescence titration.

B1: Escherichia coli RelB antitoxin, wildtype (His6-RelB) (natural protein)
chain: MGSINLRIDDELKARSYAALEKMGVTPSEALRLMLEYIADNERLPFKQTLLSDEDAELVEIVKERLRNPKPVRVTLDEL
B1: the EC50 was 2.6 nM.

B2: Escherichia coli RelB antitoxin with a stop codon at Leu66 (His6-RelBΔ66–79) (domain or fragment)
chain: MGSINLRIDDELKARSYAALEKMGVTPSEALRLMLEYIADNERLPFKQTLLSDEDAELVEIVKER
Take B2: the EC50 amounted to 24000 nM.

B3: Escherichia coli RelB antitoxin truncated at Lys70 (His6-RelBΔ70–79) (domain or fragment)
chain: MGSINLRIDDELKARSYAALEKMGVTPSEALRLMLEYIADNERLPFKQTLLSDEDAELVEIVKERLRNP
With B3, the EC50 was 880 nM.

In general, EC50 refers to the midpoint of the concentration-response curve.

These data come from PMC12301738 (The Journal of Biological Chemistry, 2025).
